Measured values as given in US20180223372A1, “IDENTIFICATION OF PREDICTIVE BIOMARKERS ASSOCIATED WITH WNT PATHWAY INHIBITORS” (OncoMed Pharmaceutical, Inc., priority 2015, published 2018).

Experiments:
OMP-LU24 lung tumor = test: OMP-LU24 NSCLC xenograft, OMP-18R5 vs control antibody; assay type: in vivo, NOD/SCID mice; conditions: OMP-LU24 squamous cell carcinoma; 15-20 mg/kg intraperitoneally weekly; tumor volume vs control antibody
Source text: (§1) The non-small cell lung cancer (NSCLC) tumor xenograft models OMP-LU02, OMP-LU11, OMP-LU24, OMP-LU25, OMP-LU33, OMP-LU45, and OMP-LU56 (and other OncoMed models described herein) were established at OncoMed Pharmaceuticals from minimally passaged, patient-derived tumor specimens. The tumor specimens were examined by a pathologist and classified as lung tumors. OncoMed relies on these classifications unless further analyses are done on any specific tumor and a reclassification is deemed necessary. […] Tumor-bearing mice were randomized into groups (n=8-10 per group) and treated with control antibody or anti-FZD antibody OMP-18R5. The antibodies were dosed at 15-20 mg/kg and were administered intraperitoneally on a weekly basis. […] Data are expressed as mean±S.E.M.
(§2) To determine if a tumor was responsive to anti-FZD antibody OMP-18R5, tumor volume data from mice treated with the control antibody were compared with tumor volume data from mice treated with OMP-18R5.

OMP-LU56 lung tumor = test: OMP-LU56 NSCLC xenograft, OMP-18R5 vs control antibody; assay type: in vivo, NOD/SCID mice; conditions: OMP-LU56 carcinoma; 15-20 mg/kg intraperitoneally weekly; tumor volume vs control antibody
Source text: as §1, §2

OMP-LU45 lung tumor = test: OMP-LU45 NSCLC xenograft, OMP-18R5 vs control antibody; assay type: in vivo, NOD/SCID mice; conditions: OMP-LU45 adenocarcinoma; 15-20 mg/kg intraperitoneally weekly; tumor volume vs control antibody
Source text: as §1, §2

OMP-LU25 lung tumor = test: OMP-LU25 NSCLC xenograft, OMP-18R5 vs control antibody; assay type: in vivo, NOD/SCID mice; conditions: OMP-LU25 large cell carcinoma; 15-20 mg/kg intraperitoneally weekly; tumor volume vs control antibody
Source text: as §1, §2

OMP-LU33 lung tumor = test: OMP-LU33 NSCLC xenograft, OMP-18R5 vs control antibody; assay type: in vivo, NOD/SCID mice; conditions: OMP-LU33 carcinoma; 15-20 mg/kg intraperitoneally weekly; tumor volume vs control antibody
Source text: as §1, §2

[1] = tested on: genes in the Wnt, Notch, and stem cell pathways; Wnt pathway target genes including AXIN2 and LEF1; test: pharmacodynamics (PD) biomarker analysis; assay type: in vivo; conditions: data not shown
Experimental: In addition, a pharmacodynamics (PD) biomarker analysis was performed and confirmed inhibition of genes in the Wnt. Notch, and stem cell pathways by treatment with OMP-18R5.

OMP-LU02 lung tumor = test: OMP-LU02 NSCLC xenograft, OMP-18R5 vs control antibody; assay type: in vivo, NOD/SCID mice; conditions: OMP-LU02 adenocarcinoma; 15-20 mg/kg intraperitoneally weekly; tumor volume vs control antibody
Source text: as §1, §2

OMP-LU11 lung tumor = test: OMP-LU11 NSCLC xenograft, OMP-18R5 vs control antibody; assay type: in vivo, NOD/SCID mice; conditions: OMP-LU11 squamous cell carcinoma; 15-20 mg/kg intraperitoneally weekly; tumor volume vs control antibody
Source text: as §1, §2

B1: OMP-18R5: anti-FZD IgG2 antibody binding FZD1, FZD2, FZD5, FZD7, FZD8; ATCC deposit PTA-9541; heavy/light chain SEQ ID NO:11 and 12 (antibody)
heavy: EVQLVESGGGLVQPGGSLRLSCAASGFTFSHYTLSWVRQAPGKGLEWVSVISGDGSYTYYADSVKGRFTISSDNSKNTLYLQMNSLRAEDTAVYYCARNFIKYVFANWGQGTLVTVSSASTKGPSVFPLAPCSRSTSESTAALGCLVKDYFPEPVTVSWNSGALTSGVHTFPAVLQSSGLYSLSSVVTVPSSNFGTQTYTCNVDHKPSNTKVDKTVERKCCVECPPCPAPPVAGPSVFLFPPKPKDTLMISRTPEVTCVVVDVSHEDPEVQFNWYVDGVEVHNAKTKPREEQFNSTFRVVSVLTVVHQDWLNGKEYKCKVSNKGLPAPIEKTISKTKGQPREPQVYTLPPSREEMTKNQVSLTCLVKGFYPSDIAVEWESNGQPENNYKTTPPMLDSDGSFFLYSKLTVDKSRWQQGNVFSCSVMHEALHNHYTQKSLSLSPGK
light: DIELTQPPSVSVAPGQTARISCSGDNIGSFYVHWYQQKPGQAPVLVIYDKSNRPSGIPERFSGSNSGNTATLTISGTQAEDEADYYCQSYANTLSLVFGGGTKLTVLGQPKAAPSVTLFPPSSEELQANKATLVCLISDFYPGAVTVAWKADSSPVKAGVETTTPSKQSNNKYAASSYLSLTPEQWKSHRSYSCQVTHEGSTVEKTVAPTECS
modifications: Heavy chain amino acid sequence; Light chain amino acid sequence
In the case of B1, the Classification (OMP-LU24 lung tumor) is reported as “Responder”, the Classification (OMP-LU56 lung tumor) is reported as “Non-responder” and the Classification (OMP-LU45 lung tumor) is reported as “Non-responder”. For the same molecule, the Classification (OMP-LU25 lung tumor) was “Non-responder”, the Classification (OMP-LU33 lung tumor) was “Responder” and the “Wnt pathway target genes including AXIN2 and LEF1” value ([1]; OMP-18R5 as a single agent) was “down-regulated significantly”. For the same molecule, the “genes in the Wnt, Notch, and stem cell pathways” value ([1]; treatment with OMP-18R5) was “inhibition”, the Classification (OMP-LU02 lung tumor) was “Non-responder” and the Classification (OMP-LU11 lung tumor) was “Responder”.
